Our source for the attenuation of SRE activation (SRE-luciferase reporter, CHO-D2R cells co-transfected with Gαi1) and reduction in SRE activation (SRE-luciferase reporter, CHO-D2R cells) values is US20030119716A1, “Methods for screening, treating and diagnosing G-protein coupled receptor-related disorders and compositions thereof” (Wyeth, priority 2001, published 2003).

Test [1] concerns the target Gαi1. The test can be described thus: cell-based or functional assay.
Test [2] addresses Gαq/i chimera. The test can be described thus: cell-based or functional assay.

B1: human RGS2 (protein, UniProt P41220 1-211, looked up)
chain: MQSAMFLAVQHDCRPMDKSAGSGHKSEEKREKMKRTLLKDWKTRLSYFLQNSSTPGKPKTGKKSKQQAFIKPSPEEAQLWSEAFDELLASKYGLAAFRAFLKSEFCEENIEFWLACEDFKKTKSPQKLSSKARKIYTDFIEKEAPKEINIDFQTKTLIAQNIQEATSGCFTTAQKRVYSLMENNSYPRFLESEFYQDLCKKPQITTEPHAT
B1: the attenuation of SRE activation (SRE-luciferase reporter, CHO-D2R cells co-transfected with Gαi1) in test [1] fell in the range of 25 to 30%. For the same molecule, in test [2], the reduction in SRE activation (SRE-luciferase reporter, CHO-D2R cells) was 70%.
